From the RNAGym collection of RNA variant scans (doi:10.7554/elife.80360)

B1: Twister Ribozyme (parent)
chain: AACACUGCCAAUGCCGGUCCCAAGCCCGGAUAAAAGUGGAGGGGGCGG

Variants of: B1
Assay: self-cleavage, relative activity (ratio to wild type); higher = more cleavage; co-transcriptional

In order of falling self-cleavage:
1. A1G A2C  1.43
2. A1G U31G  0.533
3. A1G U12G  0.527
4. A1G U12A  0.515
5. A1G A33U  0.512
6. A1G A32G  0.507
7. A1G A33G  0.499
8. A1G A32C  0.497
9. A1G A32U  0.459
10. A1G U12C  0.45
11. A1G G29A  0.437
12. A2G C46G  0.431
13. A1G G28U  0.428
14. A1G G48A  0.414
15. A1G U31C  0.409
16. A1G G48U  0.409
17. A1G G47C  0.385
18. A1G A30G  0.376
19. A1G G17A  0.367
20. A1G A35C  0.359
21. A1G C3A  0.349
22. A1G G47A  0.334
23. A1G C5U  0.328
24. A1G A22C  0.325
25. A1G G45A  0.32
26. A1G C9G  0.315
27. A2G C14A  0.291
28. A1G G29C  0.29
29. A1G G47U  0.278
30. A1C C5U  0.277
31. A2G G28A  0.269
32. A1G C15A  0.265
33. A1G C9U  0.259
34. A2G A30U  0.256
35. A1G G45C  0.254
36. A1G G43U  0.243
37. A1G U31A  0.24
38. A1C G42C  0.239
39. A1G A4U  0.235
40. A2G A30C  0.23
41. A2G A35G  0.226
42. A1G C5A  0.224
43. A2G A4G  0.212
44. A2G A35U  0.211
45. A1C C3U  0.208
46. A1G C25G  0.205
47. A1C G36A  0.203
48. A2G C46A  0.2
49. A1C G41U  0.199
50. A1G G39U  0.198
51. A1G C25A  0.197
52. A1C C3A  0.193
53. A1C G16C  0.192
54. A1G A2U  0.19
55. A1C U6A  0.189
56. A1C G16U  0.189
57. A1C A23U  0.184
58. A1C G43U  0.179
59. A1C A11U  0.176
60. A1G G43A  0.176
61. A1C G44A  0.176
62. A1C G36U  0.173
63. A1C C26A  0.171
64. A1C C26G  0.171
65. A1C G42U  0.169
66. A1C A33C  0.169
67. A1C G44C  0.162
68. A2G C19U  0.155
69. A2C A4C  0.154
70. A1C C21A  0.154
71. A1C A10U  0.153
72. A1C G7U  0.149
73. A1C U37A  0.148
74. A1C C25A  0.148
75. A1C C46A  0.148
76. A1C U6C  0.147
77. A1G C21U  0.146
78. A1C G39C  0.145
79. A1C A23G  0.145
80. A1C G41A  0.143
81. A1C G41C  0.14
82. A1C C27U  0.138
83. A1C A10G  0.133
84. A1C C26U  0.133
85. A1C G44U  0.133
86. A2G C25A  0.127
87. A1G C15G  0.125
88. A1C C21U  0.125
89. A2G C19G  0.121
90. A1C C27G  0.121
91. A1C A23C  0.12
92. A2G G16C  0.119
93. A2G G36A  0.118
94. A1C A33G  0.116
95. A2G G17A  0.113
96. A2C A33G  0.107
97. A1C C20A  0.104
98. A1U A35C  0.0998
99. A2C C46U  0.0993
100. A1C C21G  0.0972
101. A2C U18C  0.0934
102. A2G C25G  0.0917
103. A2C U18G  0.0901
104. A1U A22C  0.0885
105. A1U A10U  0.0883
106. A2G C27A  0.0876
107. A2C A10U  0.0864
108. A1U C26U  0.0863
109. A2C U6G  0.0861
110. A2G A23U  0.0843
111. A1U G38U  0.0843
112. A2C C19G  0.0832
113. A1C U6G  0.0831
114. A2G A23G  0.0805
115. A1U C20A  0.0791
116. A2C G36U  0.0783
117. A1U G48C  0.0772
118. A2C U18A  0.0761
119. A1U G43C  0.0749
120. A1U G42U  0.0745
121. A1U C15G  0.0744
122. A1G A4C  0.0744
123. A2C A10C  0.0739
124. A1U G48A  0.0713
125. A1U G42A  0.0707
126. A2C A33U  0.0693
127. A2C U6A  0.0688
128. A2C G39U  0.0688
129. A1U U18G  0.0681
130. A2C G24A  0.0674
131. A1U C46U  0.0668
132. A1U C21G  0.0652
133. A2G A23C  0.0651
134. A1U G48U  0.0644
135. A2C A35C  0.064
136. A2C G17A  0.063
137. A1U G24A  0.062
138. A1U C26G  0.0605
139. A1U C15A  0.0603
140. A2C C25A  0.0593
141. A1U C27A  0.0592
142. A2C G36A  0.0575
143. A1U G45C  0.0573
144. A1U G45U  0.0565
145. A1U C21U  0.0559
146. A2C G13U  0.0549
147. A1U G29A  0.0545
148. A1U U18C  0.054
149. A2C C8G  0.0519
150. A2C C46G  0.0474
151. A2C C19A  0.0459
152. A2C G17U  0.0456
153. A2C A4G  0.0453
154. A1U G16U  0.0446
155. A2C C46A  0.0436
156. A2C C9U  0.0433
157. A2C A35G  0.0429
158. A2C A4U  0.0426
159. A2G G17C  0.0381
160. A1U G36A  0.0371
161. A1U A30U  0.0367
162. A1U A10C  0.0358
163. A1U U18A  0.0328
164. A1G C21G  0.0325
165. A2C G13C  0.0312
166. A2C A33C  0.0306
167. A1U A35G  0.025
